Test results taken from patent publication US8013137B2, “Modified enteropeptidase protein” (National University Corporation Hokkaido University, priority 2006, dated 2011).

Key:
medaka EP-2 protease = experiment: Inhibitor assay, enzyme activity measured using GD4K-βNA as a substrate; assay type: biochemical, medaka (Oryzias latipes); details: inhibitor 0.1 mg/ml; GD4K-βNA substrate; 10 min preincubation
medaka EP-1 protease = experiment: as above; assay type: biochemical, medaka (Oryzias latipes); details: inhibitor 0.1 mg/ml; GD4K-βNA substrate; 10 min preincubation
[1] = system: D4K-cleavage site-containing control protein; experiment: Cleavage of D4K-cleavage site-containing control protein (Novagen); assay type: biochemical; details: 37° C., 1 h, 100 ng EP
Procedure: (§1) (A) Active recombinant EP proteases were assayed using a GD4K-βNA (SEQ ID NO: 6) substrate as a substrate. Bovine (Nvg), bovine EP protease available from Novagen; Bovine (Neb), bovine EP protease available from NEB. (B) Active recombinant EP proteases were assayed using various synthetic peptide substrates. (C) Active EP proteases were analyzed by gelatin zymography. (D) Fibronectin (4 μg) was incubated with active EPs (100 ng) at 37° C. for 12 h. (E) Laminin ((10 μg) was incubated with active recombinant EPs (100 ng) at 37° C. for 12 h. (F) Two μg of the control protein containing the D4K site (SEQ ID NO: 1) was incubated with active recombinant EPs (100 ng) at 37° C. for 1 h.
(§2) The effect of Medaka EP serine protease on various fusion proteins containing a D4K-cleavage site (SEQ ID NO: 1) was examined. […]

[2] = system: recombinant Medaka trypsinogen; experiment: Activation of recombinant Medaka trypsinogen, SDS-PAGE; assay type: biochemical; details: 37° C., 15, 30 and 45 min
[3] = Enzyme stability, residual activity using GD4K-βNA; assay type: physicochemical
Procedure: […] Aliquots of the reaction mixtures were taken at the indicated times for an activity assay using GD4K-βNA (SEQ ID NO: 6) as a substrate. The enzyme activities relative to that at 0-time are shown.
[…] The enzyme activity was measured at various time points (0 to 96 h) using GD4K-βNA (SEQ ID NO: 6) as a substrate.

gelatin = experiment: Gelatin zymography; assay type: biochemical; details: FIG. 2C
Procedure: as §1, §2

Human plasma fibronectin = experiment: Hydrolysis of fibronectin, SDS-PAGE; assay type: biochemical; details: 37° C., 12 h, 100 ng EP
Procedure: as §1, §2

GD4K-βNA = experiment: EP activity and kinetic study with specific substrate GD4K-βNA; assay type: biochemical; details: for Km / kcat: substrate GD4K-βna
Procedure: as §1
(A) The purity of purified recombinant Medaka EP-1 and EP-2 protease was assessed by SDS-PAGE. Lane 1, Medaka EP fusion protein; lane 2, Medaka EP protease treated with immobilized trypsin; lane 3, Medaka EP protease purified using a resource Q column. (B) The enzyme activities of EP proteases were determined at various pHs using GD4K-βNA (SEQ ID NO: 6) as a substrate. (C) Recombinant Medaka trypsinogen was incubated at 37° C. with EPs for 15, 30 and 45 min. After incubation, samples were analyzed by SDS-PAGE and visualized by CBB staining (upper panel). The relative amount of the active form of Medaka trypsin at each time point were calculated based on the results shown in the upper panel (lower panel). The results are presented as the means (±SD) of three separate experiments.
(§3) EP activity was routinely determined using the specific substrate Gly-Asp-Asp-Asp-Asp-Lys-β-naphthylamide (GD4K-βNA) (SEQ ID NO: 6) (Sigma) according to the method of Mikhailova and Rumsh (Mikhailova et al., FEBS Lett., 442:226-230 (1999)). Enzyme activity for various 4-methylcoumaryl-7-amide (MCA)-containing peptide substrates was determined by the method of Barrett (Barrett et al., J., Biochem. J., 187:909-912 (1980)). For kinetic studies, initial velocities, extrapolated from the plot of product versus time, were transformed into double-reciprocal plots (Lineweaver et al., J. Am. Chem. Soc., 56:658-663 (1934)). The maximum velocities (Vmax) and Km and kcat values were obtained from the intercepts of these plots. For all experiments, the results of at least three separate determinations are shown.

[4] = system: Boc-Glu(OBzl)-Ala-Arg-MCA, Z-Phe-Arg-MCA, and Pro-Phe-Arg-MCA; experiment: Amidolytic activity for synthetic MCA-containing peptide substrates (panel); assay type: biochemical; details: FIG. 2B
mouse laminin = experiment: Hydrolysis of laminin, SDS-PAGE; assay type: biochemical; details: 37° C., 12 h, 100 ng EP
Procedure: as §1, §2

Pro-Phe-Arg-MCA = experiment: Activity assay of EP proteases and EP-treated hK8 samples with Pro-Phe-Arg-MCA (FIG. 4B middle); assay type: biochemical
Procedure: (§4) (A) A recombinant fusion protein of Medaka gelatinase A (5 μg) was separately incubated with active EP proteases (100 ng) at 37° C. for 1 h, and analyzed by SDS-PAGE. (B) A recombinant fusion protein of human kallikrein 8 (hK8) (5 μg) was incubated with active EP proteases (100 ng) at 37° C. for 2 h. After incubation, the samples were analyzed by SDS-PAGE (upper panel), or assayed for activity with Pro-Phe-Arg-MCA (middle panel), or Boc-Glu(OBzl)-Ala-Arg-MCA (lower panel). […] The samples were then analyzed by SDS-PAGE/Western blotting using anti-human tPA antibody (upper panel) or anti-His probe antibody (lower panel). The position of sctPA (58- and 61-kDa) detected with the antibodies is shown.
as §3
Next, a 35.5-kDa protein of human kallikrein 8 (hK8) in the same E. coli expression system was synthesized. Digestion with Medaka wild-type and mutant EP proteases generated 31.5-kDa active hK8 by cleaving the D4K sequence (SEQ ID NO: 1) (FIG. 4B, Top). […] The EP protease-treated samples were directly assayed for hK8 activity using Pro-Phe-Arg-MCA, a good synthetic peptide substrate of hK8 (Rajapakse et al., FEBS Lett., 579:6879-6884 (2005)). […] The substrate Boc-Glu(OBzl)-Ala-Arg-MCA, which is slightly cleaved by active hK8, was rapidly hydrolyzed with the samples treated with mammalian, but not Medaka, EP proteases (FIG. 4B, Bottom).

human fibrinogen = experiment: Hydrolysis of fibrinogen, SDS-PAGE; assay type: biochemical; details: 37° C., 12 h, 100 ng EP
Procedure: (§5) (A) The specific activities of wild-type (EP-1) and mutant EP protease were determined using synthetic peptide substrates. (B) High-molecular-weight (HMW) kininogen (5 μg) was incubated with active EP proteases (100 ng) at 37° C. for 2 h and analyzed by SDS-PAGE. (C) Fibrinogen (10 μg) was incubated with active EP proteases (100 ng) at 37° C. for 12 h and analyzed by SDS-PAGE.
(§6) The effect of Medaka EP serine protease on various fusion proteins containing a D4K-cleavage site (SEQ ID NO: 1) was examined. Human plasma fibronectin (Chemicon, Temecula, Calif.), human fibrinogen (Merk Biosciences, Tokyo, Japan), human high-molecular-weight (HMW) kininogen (Calbiochem, La Jolla, Calif.), mouse laminin (Biomedical Technologies Inc., Stoughton, Mass.), D4K-cleavage site-containing (SEQ ID NO: 1) control protein (Novagen), Medaka gelatinase A (Ogiwara et al., Proc. Natl. Acad. Sci. USA, 102:8442-8447 (2005)) and trypsinogen (this study), human kallikrein 8 (hK8) (Rajapakse et al., FEBS Lett., 579:6879-6884 (2005)) and human tissue-type plasminogen activator (tPA) were incubated at 37° C. in 20 mM Tris.HCl buffer (pH 7.4) containing 50 mM NaCl and 2 mM CaCl2 with various EP serine proteases at ratios (w/w) ranging from 20:1 to 100:1. After incubation, samples were subjected to SDS-PAGE followed by Coomassie Brilliant Blue staining. […]

[5] = system: recombinant fusion protein of Medaka gelatinase A; experiment: Cleavage of recombinant fusion protein of Medaka gelatinase A; assay type: biochemical; details: 37° C., 1 h, 100 ng EP
[6] = system: recombinant fusion protein of human kallikrein 8 (hK8); experiment: Cleavage of recombinant fusion protein of human kallikrein 8 (hK8); assay type: biochemical; details: 37° C., 2 h, 100 ng EP
Procedure: as §4, §2

[7] = system: human high-molecular-weight (HMW) kininogen; experiment: Hydrolysis of HMW kininogen, SDS-PAGE; assay type: biochemical; details: 37° C., 2 h, 100 ng EP
Procedure: as §5, §6

[8] = system: human single-chain tPA fusion protein; experiment: Cleavage of human single-chain tPA fusion protein, Western blotting; assay type: biochemical; details: 37° C., 1 h, 100 ng EP
[9] = system: GD4K-βNA and the three MCA-containing substrates; experiment: Specific activities of wild-type and mutant EP protease using synthetic peptide substrates (FIG. 3A); assay type: biochemical
Procedure: as §5, §3

B1: SBTI (protein)
chain: DFVLDNEGNPLENGGTYYILSDITAFGGIRAAPTGNERCPLTVVQSRNELDKGIGTIISSPYRIRFIAEGHPLSLKFDSFAVIMLCVGIPTEWSVVEDLPEGPAVKIGENKDAMDGWFRLERVSDDEFNNYKLVFCPQQAEDDKCGDIGISIDHDDGTRRLVVSKNKPLVVQFQKLDKESL
Inhibition (%) EP-2 (medaka EP-2 protease): 99% | Inhibition (%) EP-1 (medaka EP-1 protease): 99%

B2: EP-1: recombinant serine protease domain of Medaka (Oryzias latipes) enteropeptidase-1, wild type, SEQ ID NO: 2 (protein)
chain: VVGGVNAEKGAWPWMVSLHWRGRHGCGASLIGRDWLLTAAHCVYGKNTHLQYWSAVLGLHAQSSMNSQEVQIRQVDRIIINKNYNRRTKEADIAMMHLQQPVNFTEWVLPVCLASEDQHFPAGRRCFIAGWGRDAEGGSLPDILQEAEVPLVDQDECQRLLPEYTFTSSMLCAGYPEGGVDSCQGDSGGPLMCLEDARWTLIGVTSFGVGCGRPERPGAYARVSAFTSWIAETRRSSFSDLD
modifications: Oryzias latipes
cleavage of fusion protein containing an EP-cleavage site (Novagen) [1]: specifically cleaved the fusion protein to generate two polypeptides having expected molecular masses of 16- and 32-kDa | conversion of recombinant Medaka trypsinogen to active trypsin [2]: converted to active trypsin by EP-1 faster than by EP-2 | stability of enzyme activity on storage ([3]; 4° C.): the initial enzyme activity was retained at both temperatures for at least six months | loss of enzyme activity ([3]; 37° C., neutral pH, after 4 days of incubation): about 30% | stability of enzyme activity on storage ([3]; −20° C.): the initial enzyme activity was retained at both temperatures for at least six months | hydrolysis of gelatin (gelatin): Little or no hydrolysis | hydrolysis of fibronectin (Human plasma fibronectin): Little or no hydrolysis | rate of GD4K-βNA cleavage compared with porcine and bovine enzymes (GD4K-βNA; FIG. 2A): at a rate comparable to those of the porcine and bovine enzymes | activity for GD4K-βNA relative to EP-2 (GD4K-βNA; FIG. 8B): approximately three times more active than EP-2 | pH of maximal activity for GD4K-βNA (GD4K-βNA; serine protease domain, FIG. 8B): 8 | Km (GD4K-βNA): 700 µM | kcat (GD4K-βNA): 15.7 s⁻¹ | amidolytic activities for synthetic MCA-containing peptide substrates compared with mammalian EP proteases [4]: much lower than those of the EP proteases of mammalian origin | hydrolysis of laminin (mouse laminin): Little or no hydrolysis | enzyme activity of the EP protease itself with Pro-Phe-Arg-MCA (Pro-Phe-Arg-MCA): none of the Medaka EP proteases (wild-type EP-1, K63R, E173A, or E193A) showed any significant enzyme activity

B3: E173A: EP-1 with E173A mutation, SEQ ID NO: 4 (protein)
chain: VVGGVNAEKGAWPWMVSLHWRGRHGCGASLIGRDWLLTAAHCVYGKNTHLQYWSAVLGLHAQSSMNSQEVQIRQVDRIIINKNYNRRTKEADIAMMHLQQPVNFTEWVLPVCLASEDQHFPAGRRCFIAGWGRDAEGGSLPDILQEAEVPLVDQDACQRLLPEYTFTSSMLCAGYPEGGVDSCQGDSGGPLMCLEDARWTLIGVTSFGVGCGRPERPGAYARVSAFTSWIAETRRSSFSDLD
modifications: Oryzias latipes
nonspecific proteolytic activity for human fibrinogen (human fibrinogen): retained a low nonspecific proteolytic activity | cleavage of Medaka gelatinase A fusion protein [5]: no serious reduction of the D4K (SEQ ID NO: 1) cleaving activity | Km (GD4K-βNA): 300 µM | kcat (GD4K-βNA): 5.33 s⁻¹ | cleavage of hK8 fusion protein [6]: no serious reduction of the D4K (SEQ ID NO: 1) cleaving activity | nonspecific proteolytic activity for human HMW kininogen [7]: retained a low nonspecific proteolytic activity | cleavage of human single-chain tPA fusion protein [8]: no serious reduction of the D4K (SEQ ID NO: 1) cleaving activity | enzyme activity for synthetic peptide substrates compared with the wild-type enzyme [9]: significantly lower activities than the wild-type enzyme toward all the synthetic substrates tested | enzyme activity of the EP protease itself with Pro-Phe-Arg-MCA (Pro-Phe-Arg-MCA): none of the Medaka EP proteases (wild-type EP-1, K63R, E173A, or E193A) showed any significant enzyme activity
